This note sets out measurements from publication PMC10663207.

Assay [1] deals with NMDA receptor subunit GluN2A (rat (endogenous in primary cortical neurons)) (UniProt Q00959). As to the kind of experiment: co-IP; precleared lysates (700 µg) of rat primary cortical neurons incubated overnight with protein G-agarose carrying anti-GluN2A or anti-GluN2B; blots for STIM1 and STIM2; control neurons and neurons treated with 50 µM NMDA and 100 µM glycine for 15 min; bands normalised to the precipitated subunit.

Assay [2] has as its target NMDA receptor subunit GluN2B (rat (endogenous in primary cortical neurons)) (UniProt Q00960). The description is as above.
UniProt Q00960, sequence (Q00960 27-1482): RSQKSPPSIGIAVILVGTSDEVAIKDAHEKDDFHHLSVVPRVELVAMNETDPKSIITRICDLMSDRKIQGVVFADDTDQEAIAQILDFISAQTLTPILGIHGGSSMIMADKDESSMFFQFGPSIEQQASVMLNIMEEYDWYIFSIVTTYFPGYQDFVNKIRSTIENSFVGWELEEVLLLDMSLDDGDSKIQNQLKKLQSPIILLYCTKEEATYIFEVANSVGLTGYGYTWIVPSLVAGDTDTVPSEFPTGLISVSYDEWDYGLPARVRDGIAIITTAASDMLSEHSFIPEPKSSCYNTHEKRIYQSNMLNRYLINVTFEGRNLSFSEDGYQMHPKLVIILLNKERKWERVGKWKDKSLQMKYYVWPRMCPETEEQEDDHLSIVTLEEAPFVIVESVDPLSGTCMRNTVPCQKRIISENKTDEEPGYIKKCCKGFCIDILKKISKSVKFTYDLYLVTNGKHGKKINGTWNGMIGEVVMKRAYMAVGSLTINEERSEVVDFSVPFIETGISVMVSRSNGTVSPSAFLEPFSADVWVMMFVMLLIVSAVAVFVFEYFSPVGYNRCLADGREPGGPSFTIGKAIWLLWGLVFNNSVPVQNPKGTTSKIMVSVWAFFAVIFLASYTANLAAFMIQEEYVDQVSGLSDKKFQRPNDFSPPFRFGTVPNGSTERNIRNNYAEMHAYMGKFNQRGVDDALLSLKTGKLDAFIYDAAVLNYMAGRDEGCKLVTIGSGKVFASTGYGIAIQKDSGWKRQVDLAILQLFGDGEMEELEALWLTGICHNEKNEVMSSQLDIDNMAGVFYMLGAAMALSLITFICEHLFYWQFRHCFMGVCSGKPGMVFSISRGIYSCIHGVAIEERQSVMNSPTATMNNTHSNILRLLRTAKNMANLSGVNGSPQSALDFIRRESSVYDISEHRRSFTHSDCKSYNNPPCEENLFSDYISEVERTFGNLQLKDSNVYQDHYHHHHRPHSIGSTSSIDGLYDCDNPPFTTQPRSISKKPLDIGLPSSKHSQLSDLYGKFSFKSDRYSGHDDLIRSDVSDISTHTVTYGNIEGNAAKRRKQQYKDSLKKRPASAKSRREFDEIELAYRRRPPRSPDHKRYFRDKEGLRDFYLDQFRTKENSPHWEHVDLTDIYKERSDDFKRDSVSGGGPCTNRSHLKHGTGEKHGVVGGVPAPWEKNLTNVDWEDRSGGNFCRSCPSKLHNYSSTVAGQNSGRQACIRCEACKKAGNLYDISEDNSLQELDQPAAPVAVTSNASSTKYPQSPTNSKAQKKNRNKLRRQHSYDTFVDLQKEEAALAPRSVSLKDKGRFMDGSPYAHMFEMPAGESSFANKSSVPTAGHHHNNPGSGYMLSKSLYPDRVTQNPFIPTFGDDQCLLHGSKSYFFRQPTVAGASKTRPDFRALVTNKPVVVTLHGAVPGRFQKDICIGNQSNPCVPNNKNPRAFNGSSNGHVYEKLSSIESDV

UniProt Q00959, sequence (Q00959 23-1464): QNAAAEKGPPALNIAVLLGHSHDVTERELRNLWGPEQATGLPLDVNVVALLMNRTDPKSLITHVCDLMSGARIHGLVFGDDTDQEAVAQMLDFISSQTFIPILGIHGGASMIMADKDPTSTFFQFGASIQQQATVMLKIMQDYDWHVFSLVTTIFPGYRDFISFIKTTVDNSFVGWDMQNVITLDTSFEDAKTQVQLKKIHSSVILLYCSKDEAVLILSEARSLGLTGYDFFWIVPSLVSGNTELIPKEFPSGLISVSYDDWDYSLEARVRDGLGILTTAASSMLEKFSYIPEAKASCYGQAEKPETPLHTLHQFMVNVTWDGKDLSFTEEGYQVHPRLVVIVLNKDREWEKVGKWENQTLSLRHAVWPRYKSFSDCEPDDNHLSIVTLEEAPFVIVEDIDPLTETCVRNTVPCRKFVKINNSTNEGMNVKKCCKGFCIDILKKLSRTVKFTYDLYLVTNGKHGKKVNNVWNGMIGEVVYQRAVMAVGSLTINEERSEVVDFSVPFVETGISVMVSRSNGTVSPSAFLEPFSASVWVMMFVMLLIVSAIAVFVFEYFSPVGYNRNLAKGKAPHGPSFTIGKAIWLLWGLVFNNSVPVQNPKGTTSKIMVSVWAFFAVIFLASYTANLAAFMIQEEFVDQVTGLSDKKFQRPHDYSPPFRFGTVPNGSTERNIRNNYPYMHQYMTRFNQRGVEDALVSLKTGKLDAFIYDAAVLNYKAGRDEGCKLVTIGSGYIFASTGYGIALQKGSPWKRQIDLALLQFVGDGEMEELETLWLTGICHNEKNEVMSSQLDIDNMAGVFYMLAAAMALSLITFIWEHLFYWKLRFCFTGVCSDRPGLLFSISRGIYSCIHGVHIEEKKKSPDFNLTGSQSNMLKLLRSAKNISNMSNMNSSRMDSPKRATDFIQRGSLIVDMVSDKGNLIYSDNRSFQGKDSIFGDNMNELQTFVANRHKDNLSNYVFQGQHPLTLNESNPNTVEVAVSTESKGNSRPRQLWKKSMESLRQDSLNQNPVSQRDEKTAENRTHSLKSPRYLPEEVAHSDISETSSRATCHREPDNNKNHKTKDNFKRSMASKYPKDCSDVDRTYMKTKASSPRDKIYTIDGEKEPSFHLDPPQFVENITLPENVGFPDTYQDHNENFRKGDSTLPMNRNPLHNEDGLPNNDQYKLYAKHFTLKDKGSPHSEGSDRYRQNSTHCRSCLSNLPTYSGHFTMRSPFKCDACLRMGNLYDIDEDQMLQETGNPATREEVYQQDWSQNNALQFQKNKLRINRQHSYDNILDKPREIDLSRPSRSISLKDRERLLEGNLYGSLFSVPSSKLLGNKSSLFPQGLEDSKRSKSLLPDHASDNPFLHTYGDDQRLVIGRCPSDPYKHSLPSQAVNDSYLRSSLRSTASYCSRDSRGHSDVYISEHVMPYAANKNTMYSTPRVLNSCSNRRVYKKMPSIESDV

For the substance “stromal interaction molecule 2 (STIM2) (natural protein)”, the co-IP band after NMDA and glycine treatment, percent of control neurons was found to be 340% in assay [1] and 204% in assay [2].
